Patent publication US20140044711A1

Key:
[1] = target: Fc receptors on the surface of THP1 cells (Fc bearing human myeloid/monocytic cell line) (human); experiment: FACS, mean fluorescence intensity of AF-647 labeled protein bound to THP1 cells
[2] = target: Fc receptors on the surface of THP1 cells (Fc bearing human myeloid/monocytic cell line) (human); experiment: cell-based or functional assay

Row | fold reduction in Fc receptor binding relative to RSLV-124 [1] | Substance | cell death of THP1 cells by FACS, RNase Fc mutant compared to wild type [2] | fold decrease in cell death of THP1 cells (Annexin V binding and propidium iodide binding), RNase-Fc mutant compared to RNase-wild type Fc fusion protein [2]
1 | > 4 fold | RSLV-132 (wthRNase-SCC-mthIgG1 P238S P331S) (Fc fusion) |  | 
2 |  | RNase-Fc fusion protein with a mutant Fc (P238S, P331S) (mtRNasemgIgG) | 3 to 5 fold | 3 fold
